Experimental data published in paper PMC6328183 (2019).

Target: FuBc protein (recombinant protein of the fusion loop and Bc loop of domain II of dengue envelope protein with … (DENV-2 (of the template structure PDB …, UniProt P12823)))
Experiment: SPR

B1: 3IXY scFv antibody (VH and VL of the anti-fusion loop dengue E53 Fab, PDB 3IXY, joined by a (G4S)3 linker) (scFv, V domains shown)
VH: EVKLVESGGGLVLPGGSLRLSCATSGFTFTDYYMTWVRQPPGKALEWLGFIGNKANDYTTEYSASVKGRFTISRDDSQSILYLQMSTLRAEDRATYYCATVYGNYPYFDVWGAGTTVAVSS
VL: QIVLTQSPAIMSASPGEKVTMTCSASSSVSYMHWYQQKSGTSPKIWIYESSKLASGVPVRFSGSGSGTSYSLTISSMEAEDVATYYCQQWSSHPHPLTFGAGTKLELK
koff: 0.0077 s⁻¹
